Data on 7 molecules can be found in US9181340B2, “TEM8 antibodies, conjugates thereof, and their use” (The United States of America, as represented by the …, priority 2011, dated 2015).

One series relates to HCT-116 tumors. Particulars: mouse, in vivo.
Series [1] deals with T1, human TEM8 (293/Flag-hTEM8 cells) (Homo sapiens, UniProt Q9H6X2).
T1 construct: expressed in transfected cells
The series is described as follows: Flow cytometry / immunofluorescence binding to 293/Flag-hTEM8 cells. Particulars: immunofluorescence staining and flow cytometry. The protocol:
293 cells were obtained from ATCC. 293 cells were cultured in DMEM supplemented with 10% FBS. 293 cells expressing mouse (293-mTEM8) or a flag-tagged human TEM8 (293/Flag-huTEM8) were generated by lipofectamine 2000 mediated stable transfection of 293 cells with a mTEM8/pcDNA3 or a Flag-huTEM8/pcDNA3 expression vector (Yang et al., Biochim Biophys Acta 1813(1):39-49, 2011).
(§1) Trypsinized cells were rinsed in cold PBS/0.5% BSA (PBS/BSA) and labeled with anti-TEM8 Fabs (human) or full IgG (human-mouse) primary antibodies in PBS/BSA containing 10% goat serum at 4° C. Cells were rinsed with PBS/BSA and incubated with FITC-conjugated goat anti-human Fab or anti-mouse IgG secondary antibodies (Jackson Immunoresearch, West Grove, Pa.), rinsed again, and analyzed on a FACScalibur flow cytometer (Becton Dickinson, Franklin Lakes, N.J.) using CellQuest™ Software.
In general terms: Flow cytometry measures light scatter and fluorescence of single cells or particles in a stream.

Series [2] concerns the target T2, mouse TEM8 (293/mTEM8 cells) (Mus musculus, UniProt Q9CZ52).
T2 construct: expressed in transfected cells
The series is described as follows: Flow cytometry binding to 293/mTEM8 cells. The protocol: 293 cells were obtained from ATCC. 293 cells were cultured in DMEM supplemented with 10% FBS. 293 cells expressing mouse (293-mTEM8) or a flag-tagged human TEM8 (293/Flag-huTEM8) were generated by lipofectamine 2000 mediated stable transfection of 293 cells with a mTEM8/pcDNA3 or a Flag-huTEM8/pcDNA3 expression vector (Yang et al., Biochim Biophys Acta 1813(1):39-49, 2011). Because transfected cells expressed variable levels of TEM8 (see 293/mTEM8 cells in FIG. 8C) they were subsequently enriched for surface expression by florescence activated cell sorting (FACS) using anti-AF344 (293/mTEM8) (Yang et al., Biochim Biophys Acta 1813(1):39-49, 2011) or anti-FLAG antibodies (293/Flag-hTEM8) (M2 clone, Sigma).
as §1

Series [3] has as its target TEM8 (CHO-TEM8 cells), binding of Anthrax PA (Homo sapiens, UniProt Q9H6X2).
Series [4] addresses T3, purified recombinant hTEM8(ED)-Fc fusion protein (Homo sapiens, UniProt Q9H6X2).
T3 sequence (Q9H6X2 33-321): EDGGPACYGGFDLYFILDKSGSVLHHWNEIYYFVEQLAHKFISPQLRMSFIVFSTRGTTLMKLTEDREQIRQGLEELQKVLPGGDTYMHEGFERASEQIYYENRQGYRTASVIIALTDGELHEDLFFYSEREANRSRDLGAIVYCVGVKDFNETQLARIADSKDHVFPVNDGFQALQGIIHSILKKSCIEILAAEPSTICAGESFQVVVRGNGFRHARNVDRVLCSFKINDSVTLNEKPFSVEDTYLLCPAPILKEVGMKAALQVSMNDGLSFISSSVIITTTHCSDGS
The series is described as follows: ELISA of Fabs on TEM8(ED)-Fc. For orientation: In an ELISA, binding on a coated surface is turned into a signal by an enzyme label.

T1 sequence (Q9H6X2 33-564): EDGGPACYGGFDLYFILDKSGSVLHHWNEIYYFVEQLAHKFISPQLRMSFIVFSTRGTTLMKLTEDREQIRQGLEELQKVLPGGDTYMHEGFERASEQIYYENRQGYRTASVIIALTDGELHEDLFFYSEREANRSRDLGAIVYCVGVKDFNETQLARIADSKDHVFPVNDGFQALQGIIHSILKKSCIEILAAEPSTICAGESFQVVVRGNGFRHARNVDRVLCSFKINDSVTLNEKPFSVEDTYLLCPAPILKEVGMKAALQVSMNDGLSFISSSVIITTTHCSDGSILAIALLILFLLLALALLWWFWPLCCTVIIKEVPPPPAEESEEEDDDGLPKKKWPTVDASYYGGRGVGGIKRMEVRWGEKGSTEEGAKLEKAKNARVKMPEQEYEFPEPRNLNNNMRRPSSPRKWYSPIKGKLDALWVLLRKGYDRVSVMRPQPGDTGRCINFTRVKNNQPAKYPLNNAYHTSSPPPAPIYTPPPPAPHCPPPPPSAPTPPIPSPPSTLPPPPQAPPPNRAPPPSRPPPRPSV
T2 sequence (Q9CZ52 31-562): as the sequence (Q9H6X2 33-564) above, with K40R, R104S, S241A, I297V, A327V, N458S, A468T, T471P, P493A counted along it

For the molecule `O=c1[nH]cc(F)c(=O)[nH]1` [Antibody 5-FU, 5-fluorouracil], in the series with HCT-116 tumors, the “body weight in HCT116 tumor-bearing mice” value was “small, albeit non-significant, reduction in body weight”.
Still for that read-out and setting: the same measure for `CCc1c2c(nc3ccc(OC(=O)N4CCC(N5CCCCC5)CC4)cc13)-c1cc3c(c(=O)n1C2)COC(=O)[C@]3(O)CC` [IRT, irinotecan]: “small, albeit non-significant, reduction in body weight”.

B1: L5 Fab: fully human anti-TEM8 Fab from phage display; VH SEQ ID NO: 4, VL SEQ ID NO: 9; Fab chains SEQ ID NOs: 30, 31 (antibody)
heavy: QVQLVESGGGLVQPGGSLRLSCAASGFTFNSYGLSWVRQAPGKGLEWVSNISSNGSYTYYADSVKGRFTISRDNSKNTLYLQMNSLRAEDTAVYYCARAGYGLFDVWGQGTLVTVSSAKTTAPSVYPLAPVCGDTTGSSVTLGCLVKGYFPEPVTLTWNSGSLSSGVHTFPAVLQSDLYTLSSSVTVTSSTWPSQSITCNVAHPASSTKVDKKIEPRGPTIKPCPPCKCPAPNLLGGPSVFIFPPKIKDVLMISLSPIVTCVVVDVSEDDPDVQISWFVNNVEVHTAQTQTHREDYNSTLRVVSALPIQHQDWMSGKEFKCKVNNKDLPAPIERTISKPKGSVRAPQVYVLPPPEEEMTKKQVTLTCMVTDFMPEDIYVEWTNNGKTELNYKNTEPVLDSDGSYFMYSKLRVEKKNWVERNSYSCSVVHEGLHNHHTTKSFSRTPGK
light: DIELTQPPSVSVAPGQTARISCSGDKLREYYVHWYQQKPGQAPVLVIYGDNKRPSGIPERFSGSNSGNTATLTISGTQAEDEADYYCSSWAGSRSGTVFGGGTKLTVLGQPKSTPTLTVFPPSSEELKENKATLVCLISNFSPSGVTVAWKANGTPITQGVDTSNPTKEGNKFMASSFLHLTSDQWRSHNSFTCQVTHEGDTVEKSLSPAECL
modifications: Antibody sequence
As for B1, in series [1], the “binding to cells expressing human TEM8” value was “react”. Besides, the “binding to cells expressing mouse TEM8” value in series [2] was “react”. For the same molecule, the “blocking of PA-FITC binding to CHO-TEM8 cells” value (from here on “blocking of PA-FITC binding”) in series [3] is reported as “neutralize binding of PA to its cell surface receptor, TEM8”. Moreover, in series [4], the “reactivity with TEM8 protein in ELISA” value is given as “react”.

B2: L3 Fab: fully human anti-TEM8 Fab from phage display; VH SEQ ID NO: 3, VL SEQ ID NO: 8; Fab chains SEQ ID NOs: 28, 29 (antibody)
heavy: QVQLQQSGPGLVKPSQTLSLTCAISGDSVSTNGAAWGWIRQSPGRGLEWLGRIYYRSKWYNDYAVSVKSRITINPDTSKNQFSLQLNSVTPEDTAVYYCARMPGGFLFDLWGQGTLVTVSSASTKGPSVFPLAPSSKSTSGGTAALGCLVKDYFPEPVTVSWNSGALTSGVHTFPAVLQSSGLYSLSSVVTVPSSSLGTQTYICNVNHKPSNTKVDKKVEPKSEF
light: DIELTQPPSVSVAPGQTARISCSGDNIRSYYAHWYQQKPGQAPVLVIYGDSKRPSGIPERFSGSNSGNTATLTISGTQAEDEADYYCSSYASHDYVFGGGTKLTVLGQPKAAPSVTLFPPSSEELQANKATLVCLISDFYPGAVTVAWKADSSPVKAGVETTTPSKQSNNKYAASSYLSLTPEQWKSHRSYSCQVTHEGSTVEKTVAPTEA
modifications: Antibody sequence
Regarding B2, the “binding to cells expressing human TEM8” value in series [1] is given as “react”. In addition, the “binding to cells expressing mouse TEM8” value in series [2] is recorded as “react”. In addition, the “blocking of PA-FITC binding” value in series [3] was “neutralize binding of PA to its cell surface receptor, TEM8”. In addition, the “reactivity with TEM8 protein in ELISA” value in series [4] is “react”.

B3: L1 Fab: fully human anti-TEM8 Fab from phage display; VH SEQ ID NO: 2, VL SEQ ID NO: 7; Fab chains SEQ ID NOs: 26, 27 (antibody)
heavy: QVQLVESGGGLVQPGGSLRLSCAASGFTFNSYAMSWVRQAPGKGLEWVSLISSGSSTYYADSVKGRFTISRDNSKNTLYLQMNSLRAEDTAVYYCARAGFKFDNWGQGTLVTVSSASTKGPSVFPLAPSSKSTSGGTAALGCLVKDYFPEPVTVSWNSGALTSGVHTFPAVLQSSGLYSLSSVVTVPSSSLGTQTYICNVNHKPSNTKVDKKVEPKSEF
light: DIELTQPPSVSVAPGQTARISCSGDSIPNYSVSWYQQKPGQAPVLVIYADSNRPSGIPERFSGSNSGNTATLTISGTQAEDEADYYCQSYDNTSPDLVFGGGTKLTVLGQPKAAPSVTLFPPSSEELQANKATLVCLISDFYPGAVTVAWKADSSPVKAGVETTTPSKQSNNKYAASSYLSLTPEQWKSHRSYSCQVTHEGSTVEKTVAPTEA
modifications: Antibody sequence
Regarding B3, in series [1], the “binding to cells expressing human TEM8” value was “react”. Moreover, the “binding to cells expressing mouse TEM8” value in series [2] is on record as “react”. In series [3], the “blocking of PA-FITC binding” value was “neutralize binding of PA to its cell surface receptor, TEM8”. Also, the “reactivity with TEM8 protein in ELISA” value in series [4] is on record as “react”.

B4: 1D2 Fab: fully human anti-TEM8 Fab from phage display; VH SEQ ID NO: 5, VL SEQ ID NO: 10; Fab chains SEQ ID NOs: 32, 33 (antibody)
heavy: QVQLKESGPALVKPTQTLTLTCTFSGFSLSTSGMGVSWIRQPPGKALEWLAHINLDDDKYYSTSLKTRLTISKDTSKNQVVLTMTNMDPVDTATYYCARGGYGDMDVWGQGTLVTVSSASTKGPSVFPLAPSSKSTSGGTAALGCLVKDYFPEPVTVSWNSGALTSGVHTFPAVLQSSGLYSLSSVVTVPSSSLGTQTYICNVNHKPSNTKVDKKVEPKSEF
light: DIELTQPPSVSVAPGQTARISCSGDNIRSMFVHWYQQKPGQAPVLVIYADNKRPSGIPERFSGSNSGNTATLTISGTQAEDEADYYCSSYDYNAHLVVFGGGTKLTVLGQPKAAPSVTLFPPSSEELQANKATLVCLISDFYPGAVTVAWKADSSPVKAGVETTTPSKQSNNKYAASSYLSLTPEQWKSHRSYSCQVTHEGSTVEKTVAPTEA
modifications: Antibody sequence
For B4, in series [1], the “binding to cells expressing human TEM8” value is “react”. Besides, the “binding to cells expressing mouse TEM8” value in series [2] is on record as “react”. Also, the “reactivity with TEM8 protein in ELISA” value in series [4] is on record as “react”.

B5: L2 Fab: fully human anti-TEM8 Fab from phage display; VH SEQ ID NO: 1, VL SEQ ID NO: 6; Fab chains SEQ ID NOs: 24, 25 (antibody)
heavy: QVQLKESGPALVKPTQTLTLTCTFSGFSLSTSGGGVSWIRQPPGKALEWLAHIYSNDDKSYSTSLKTRLTISKDTSKNQVVLTMTNMDPVDTATYYCARGGYFLDYWGQGTLVTVSSAKTTAPSVYPLAPVCGDTTGSSVTLGCLVKGYFPEPVTLTWNSGSLSSGVHTFPAVLQSDLYTLSSSVTVTSSTWPSQSITCNVAHPASSTKVDKKIEPRGPTIKPCPPCKCPAPNLLGGPSVFIFPPKIKDVLMISLSPIVTCVVVDVSEDDPDVQISWFVNNVEVHTAQTQTHREDYNSTLRVVSALPIQHQDWMSGKEFKCKVNNKDLPAPIERTISKPKGSVRAPQVYVLPPPEEEMTKKQVTLTCMVTDFMPEDIYVEWTNNGKTELNYKNTEPVLDSDGSYFMYSKLRVEKKNWVERNSYSCSVVHEGLHNHHTTKSFSRTPGK
light: DIELTQPPSVSVAPGQTARISCSGDNIGGIYVHWYQQKPGQAPVLVIYADSKRPSGIPERFSGSNSGNTATLTISGTQAEDEADYYCQSYDITSLVFGGGTKLTVLGQPKSTPTLTVFPPSSEELKENKATLVCLISNFSPSGVTVAWKANGTPITQGVDTSNPTKEGNKFMASSFLHLTSDQWRSHNSFTCQVTHEGDTVEKSLSPAECL
modifications: Antibody sequence
Consider B5, for which the “binding to cells expressing human TEM8” value in series [1] is listed as “react”. Further, the “binding to cells expressing mouse TEM8” value in series [2] is reported as “react”. In addition, the “blocking of PA-FITC binding” value in series [3] is on record as “neutralize binding of PA to its cell surface receptor, TEM8”. Besides, in series [4], the “reactivity with TEM8 protein in ELISA” value is “react”.
